What was measured:
[1] = flow cytometry, cubilin surface expression, CHO K1; conditions: glycan lost; control: wild type AMN co-transfected with cubilin
[2] = target: the molecule itself; assay: crystal structure; AMN(20–357) and cubilin(26–135) co-expressed in E. coli and co-purified; crystals at 4 °C, sitting drop, 1.5 M magnesium sulphate, 0.1 M MES pH 5.5; 2.3 Å, SAD phasing

B1: amnionless (AMN): S37A (protein)
parent chain: MGVLGRVLLWLQLCALTQAVSKLWVPNTDFDVAANWSQNRTPCAGGAVEFPADKMVSVLVQEGHAVSDMLLPLDGELVLASGAGFGVSDVGSHLDCGAGEPAVFRDSDRFSWHDPHLWRSGDEAPGLFFVDAERVPCRHDDVFFPPSASFRVGLGPGASPVRVRSISALGRTFTRDEDLAVFLASRAGRLRFHGPGALSVGPEDCADPSGCVCGNAEAQPWICAALLQPLGGRCPQAACHSALRPQGQCCDLCGAVVLLTHGPAFDLERYRARILDTFLGLPQYHGLQVAVSKVPRSSRLREADTEIQVVLVENGPETGGAGRLARALLADVAENGEALGVLEATMRESGAHVWGSSAAGLAGGVAAAVLLALLVLLVAPPLLRRAGRLRWRRHEAAAPAGAPLGFRNPVFDVTASEELPLPRRLSLVPKAAADSTSHSYFVNPLFAGAEAEA
**Q.** With B1 as the protein, how does the localisation_or_trafficking [1] read?
**A.** The localisation_or_trafficking was “no change”.

B2: amnionless (AMN): S37A/T41I (protein)
parent chain: B1 parent chain
**Q.** With B2 as the protein, how does the localisation_or_trafficking [1] read?
**A.** Its localisation_or_trafficking is “no change”.

B3: N-terminal fragment of cubilin (residues 26–135) (domain or fragment, human, UniProt O60494 26-135, looked up)
chain: GELELQRQKRSINLQQPRMATERGNLVFLTGSAQNIEFRTGSLGKIKLNDEDLSECLHQIQKNKEDIIELKGSAIGLPQNISSQIYQLNSKLVDLERKFQGLQQTVDKKV
notes: The methods name 'human' before AMN only ('human AMN ... and the N-terminal fragment of cubilin'); Cloned into the NdeI site of multiple cloning site 2 of pACYCDuet-1; also called trimeric cubilin; source: also in E. coli lysate / His-tag column eluate with the AMN T41I mutant
**Q.** For B3, which “stoichiometry N” value [2] is on record?
**A.** The value was 3.
